Laboratory results reported in paper PMC5852081, “The preprophase band-associated kinesin-14 OsKCH2 is a processive minus-end-directed microtubule motor” (Nature Communications, 2018).
Values belong to the molecule of their own block, whether it stands above or below them.

Key:
[1] = biological target: GFP-OsKCH1/KCH2 (O. sativa) (UniProt Q0IMS9); test: single-molecule photobleaching (TIRF microscopy); GFP-tagged motors bound to surface-immobilized microtubules in the single-molecule motility buffer without ATP, room temperature; photobleaching steps counted
[2] = biological target: GFP-OsKCH2(289–767)^T (not stated | O. sativa); test: as above
[3] = biological target: GFP-OsKCH2(289–767) (O. sativa); test: sucrose gradient centrifugation; 5–20% sucrose gradient in BRB80 with 25 mM KCl, 150,000 x g, 4 °C, 18 h; fractions by SDS-PAGE; standards CA, BSA, AD, amylase, apoferritin
[4] = biological target: GFP-OsKCH2(289–767) (O. sativa); test: single-molecule photobleaching (TIRF microscopy); GFP-tagged motors bound to surface-immobilized microtubules in the single-molecule motility buffer without ATP, room temperature; photobleaching steps counted
[5] = biological target: GFP-OsKCH2(289–720) (O. sativa); test: sucrose gradient centrifugation; 5–20% sucrose gradient in BRB80 with 25 mM KCl, 150,000 x g, 4 °C, 18 h; fractions by SDS-PAGE; standards CA, BSA, AD, amylase, apoferritin
[6] = biological target: the molecule itself; test: not stated; oligomeric state of GFP-OsKCH1(292–744), Supplementary Fig. 5d, e; legend not shown

stoichiometry N [1]: 2
Molecule: GFP-OsKCH1/KCH2 (from UniProt Q0IMS9 292-705) (domain or fragment)

stoichiometry N [2]: 4
Molecule: GFP-OsKCH2(289–767)^T (domain or fragment)

stoichiometry N [3]: 2
stoichiometry N [4]: 2
Molecule: GFP-OsKCH2(289–767) (domain or fragment)

Further lines, the molecule ahead of its results:

Molecule: GFP-OsKCH2(289–720) (domain or fragment)
stoichiometry N [5]: 2

B1: GFP-OsKCH1(292–744) (domain or fragment, O. sativa, UniProt Q0IMS9 292-744, looked up)
chain: GEVKQFQLEAQTNFDVQQKQIQELKGALSFVKSGMEQLRLQYSEEFAKLGKHFYTLSNAASSYHKVLEENRKLYNQIQDLKGNIRVYCRVRPFLPGHRSLSSSVADTEERTITIITPTKYGKDGCKSFSFNRVFGPASTQEEVFSDMQPLIRSVLDGFNVCIFAYGQTGSGKTFTMSGPKVLTEESLGVNYRALNDLFNIKAQRKGTIDYEISVQMIEIYNEQVRDLLQDGGNRRLEIRNTPQKGLAVPDASIVPVTSTADVVELMNQGQKNRAVGSTAINDRSSRSHSCLSVHVQGKYLTSGAMLRGCMHLVDLAGSERVDKSEVVGDRLKEAQYINKSLSALGDVIASLAQKNSHVPYRNSKLTQLLQDSLGGQAKTLMFVHVSPELDAVGETISTLKFAERVASVELGAAKANKEGSEVRELKEQIATLKAALAKKEGEPENIQSTQSSP
notes: codon-optimized synthetic cDNA; source: E. coli BL21 Rosetta (DE3), purified (Talon beads); not shown: GFP, N-terminal, kept
stoichiometry N [6]: 2
